Laboratory results taken from publication PMC5064454, “Wild-type p53 binds to MYC promoter G-quadruplex”.

B1: A50 (ssDNA)
DNA: AAAAAAAAAAAAAAAAAAAAAAAAAAAAAAAAAAAAAAAAAAAAAAAAAA
B2: P1-22 (dsDNA)
DNA 1: GAGACATGCCTAGACATGCCTC
DNA 2: GAGGCATGTCTAGGCATGTCTC
B3: Pu52 (structured_DNA)
DNA: TTGGGGCGCTTATGGGGAGGGTGGGGAGGGTGGGGAAGGTGGGGAGGAGACT
B4: Pu33 (structured_DNA)
DNA: TGGGGAGGGTGGGGAGGGTGGGGAAGGTGGGGA
B5: P1-50 (dsDNA)
DNA 1: GACGGTATCGATAAGAGACATGCCTAGACATGCCTCTTGATATCGAATTC
DNA 2: GAATTCGATATCAAGAGGCATGTCTAGGCATGTCTCTTATCGATACCGTC
B6: P1-40 (dsDNA)
DNA 1: GATCGATAAGAGACATGCCTAGACATGCCTCTTGATATCG
DNA 2: CGATATCAAGAGGCATGTCTAGGCATGTCTCTTATCGATC
B7: A25 (ssDNA)
DNA: AAAAAAAAAAAAAAAAAAAAAAAAA
B8: P1-30 (dsDNA)
DNA 1: GTAAGAGACATGCCTAGACATGCCTCATCG
DNA 2: CGATGAGGCATGTCTAGGCATGTCTCTTAC
B9: Pu22 (structured_DNA)
DNA: TGAGGGTGGGGAGGGTGGGGAA

Columns and labels:
[1] = biological target: T1, wtp53 (full-length wild-type p53) (Homo sapiens, UniProt P04637 1-393); assay: EMSA; 50 mM KCl; EMSA: 5 mM Tris pH 7.6, 0.5 mM EDTA, 0.01% Triton X-100, 50 mM KCl, 0.5 mM DTT, on ice 20 min (30 min for plasmids); oligo EMSA with 50 ng BSA and 2.5-20 ng pBSK/EcoRV competitor; conditions: protein: recombinant, chain copies: 4, label: 5' 32P
[2] = biological target: p53CD (GSTp53CD, central DBD) (Homo sapiens, UniProt P04637 94-312); assay: as above; conditions: protein: recombinant; tags: GST; chain copies: 4; label: 5' 32P; blunt
p53CT (GSTp53CT) = p53CT (GSTp53CT) (Homo sapiens, UniProt P04637 320-393); assay: as above; conditions: protein: recombinant; tags: GST; chain copies: 4; label: 5' 32P; parallel G4, 1:2:1 loops, annealed in 50 mM KCl
[3] = biological target: T1, wtp53 (full-length wild-type p53); assay: EMSA; 50 mM KCl; comparable to P1-50; EMSA: 5 mM Tris pH 7.6, 0.5 mM EDTA, 0.01% Triton X-100, 50 mM KCl, 0.5 mM DTT, on ice 20 min (30 min for plasmids); oligo EMSA with 50 ng BSA and 2.5-20 ng pBSK/EcoRV competitor; conditions: protein: recombinant; chain copies: 4; label: 5' 32P; parallel G4, 1:2:1 loops, annealed in 50 mM KCl
[4] = biological target: T1, wtp53 (full-length wild-type p53); assay: EMSA; 50 mM KCl; comparable to P1-30, lower than Pu52; EMSA: 5 mM Tris pH 7.6, 0.5 mM EDTA, 0.01% Triton X-100, 50 mM KCl, 0.5 mM DTT, on ice 20 min (30 min for plasmids); oligo EMSA with 50 ng BSA and 2.5-20 ng pBSK/EcoRV competitor; conditions: protein: recombinant; chain copies: 4; label: 5' 32P; parallel G4, annealed in 50 mM KCl
p53CΔ30 = p53CΔ30 (Homo sapiens, UniProt P04637 1-363); assay: EMSA; 50 mM KCl; EMSA: 5 mM Tris pH 7.6, 0.5 mM EDTA, 0.01% Triton X-100, 50 mM KCl, 0.5 mM DTT, on ice 20 min (30 min for plasmids); oligo EMSA with 50 ng BSA and 2.5-20 ng pBSK/EcoRV competitor; conditions: protein: recombinant; chain copies: 4; label: 5' 32P; blunt
[5] = biological target: T1, wtp53 (full-length wild-type p53); assay: EMSA; 50 mM KCl; comparable to P1-22, lower than Pu52; EMSA: 5 mM Tris pH 7.6, 0.5 mM EDTA, 0.01% Triton X-100, 50 mM KCl, 0.5 mM DTT, on ice 20 min (30 min for plasmids); oligo EMSA with 50 ng BSA and 2.5-20 ng pBSK/EcoRV competitor; conditions: protein: recombinant; chain copies: 4; label: 5' 32P; parallel G4, 1:2:1 loops, annealed in 50 mM KCl

Chain of p53CD (GSTp53CD, central DBD) (P04637 94-312): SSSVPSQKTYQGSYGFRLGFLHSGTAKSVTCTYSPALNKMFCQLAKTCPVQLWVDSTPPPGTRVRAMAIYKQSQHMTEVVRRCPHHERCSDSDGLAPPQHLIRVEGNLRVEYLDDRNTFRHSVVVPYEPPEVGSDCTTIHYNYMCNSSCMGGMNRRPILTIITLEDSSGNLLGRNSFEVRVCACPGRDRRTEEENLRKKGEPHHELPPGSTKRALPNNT
T1 sequence (P04637 whole entry): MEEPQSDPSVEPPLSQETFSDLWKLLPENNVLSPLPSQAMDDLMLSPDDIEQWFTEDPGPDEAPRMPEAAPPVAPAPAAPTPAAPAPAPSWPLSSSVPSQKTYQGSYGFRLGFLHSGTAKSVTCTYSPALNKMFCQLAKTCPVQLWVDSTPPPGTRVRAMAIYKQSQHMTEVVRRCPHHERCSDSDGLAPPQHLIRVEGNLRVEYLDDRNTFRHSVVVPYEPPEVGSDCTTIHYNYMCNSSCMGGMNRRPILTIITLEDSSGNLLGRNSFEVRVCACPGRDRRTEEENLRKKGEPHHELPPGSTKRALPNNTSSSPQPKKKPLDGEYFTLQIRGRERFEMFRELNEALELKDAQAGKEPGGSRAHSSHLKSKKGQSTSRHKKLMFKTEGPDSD
Chain of p53CT (GSTp53CT) (P04637 320-393): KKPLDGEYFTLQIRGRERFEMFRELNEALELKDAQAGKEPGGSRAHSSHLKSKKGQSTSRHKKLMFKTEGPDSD
Chain of p53CΔ30 (P04637 1-363, stated change not applied): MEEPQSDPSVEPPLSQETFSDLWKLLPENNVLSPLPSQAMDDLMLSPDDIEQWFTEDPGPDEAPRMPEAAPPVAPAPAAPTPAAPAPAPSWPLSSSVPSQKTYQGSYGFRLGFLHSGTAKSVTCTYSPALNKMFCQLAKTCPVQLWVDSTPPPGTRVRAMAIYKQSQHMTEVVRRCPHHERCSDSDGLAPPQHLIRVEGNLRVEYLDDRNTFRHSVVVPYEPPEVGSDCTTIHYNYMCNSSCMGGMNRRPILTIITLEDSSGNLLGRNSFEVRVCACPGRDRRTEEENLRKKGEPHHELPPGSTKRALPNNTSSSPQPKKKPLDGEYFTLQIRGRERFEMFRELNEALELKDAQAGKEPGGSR

Binder	binding result ([1]; blunt)	binding result [2]	also measured
B1	–	–	binding result [1]: no binding
B2	binds	binds	–
B3	–	–	binding result (p53CT (GSTp53CT)): binds; binding result [3]: binds
B4	–	–	binding result [4]: binds
B5	binds	binds	–
B6	binds	binds	binding result (p53CΔ30): binds
B7	–	–	binding result [1]: no binding
B8	binds	binds	–
B9	–	–	binding result [5]: binds
